Measurements from patent publication US20200088726A1.

Target: ESO 9V WT-A*02:01 pMHC (human)
Assay: BLI (OctetRED 384), pMHC immobilised on streptavidin biosensor, soluble 1G4 TCR in 1:2 dilution series from 24 µM; fit R² = 0.9992

- Kd: 5.12 µM
Substance: 1G4 TCR
